The target of data set [1] is T1, Xyr1 (Xylanase regulator 1) (Trichoderma reesei, UniProt G0RLE8 1-920).
T1 sequence: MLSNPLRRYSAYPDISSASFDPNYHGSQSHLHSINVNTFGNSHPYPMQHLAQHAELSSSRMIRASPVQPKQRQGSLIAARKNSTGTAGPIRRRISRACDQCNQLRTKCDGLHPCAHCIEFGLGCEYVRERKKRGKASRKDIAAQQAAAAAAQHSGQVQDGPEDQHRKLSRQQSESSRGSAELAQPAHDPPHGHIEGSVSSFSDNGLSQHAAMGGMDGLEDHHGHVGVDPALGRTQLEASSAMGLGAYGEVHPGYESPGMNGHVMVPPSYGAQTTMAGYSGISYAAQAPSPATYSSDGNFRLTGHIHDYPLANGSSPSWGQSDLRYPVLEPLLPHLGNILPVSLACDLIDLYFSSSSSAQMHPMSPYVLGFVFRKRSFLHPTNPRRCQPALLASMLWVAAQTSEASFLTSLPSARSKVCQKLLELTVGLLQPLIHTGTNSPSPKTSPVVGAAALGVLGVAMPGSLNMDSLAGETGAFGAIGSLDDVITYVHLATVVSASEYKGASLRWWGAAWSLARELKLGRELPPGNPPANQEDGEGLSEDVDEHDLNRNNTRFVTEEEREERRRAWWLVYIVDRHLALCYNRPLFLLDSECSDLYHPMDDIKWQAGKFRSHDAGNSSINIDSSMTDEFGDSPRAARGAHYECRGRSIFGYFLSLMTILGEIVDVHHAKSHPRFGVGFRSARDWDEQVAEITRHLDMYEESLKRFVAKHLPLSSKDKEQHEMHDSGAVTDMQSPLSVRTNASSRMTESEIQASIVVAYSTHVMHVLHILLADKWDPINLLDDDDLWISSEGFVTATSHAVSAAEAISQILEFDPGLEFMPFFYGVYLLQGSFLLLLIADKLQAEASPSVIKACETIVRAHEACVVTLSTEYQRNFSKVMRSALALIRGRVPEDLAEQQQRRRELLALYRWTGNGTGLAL
The data set can be described thus: circular dichroism; 1.8 or 3.6 uM DNA, 0.5 uM Xyr1; larger loss of ellipticity at 222 nm than XBS; EMSA/RNA-EMSA: 10 mM Tricine, 50 mM NaCl, pH 7.4, 22 C, 10 min; gel 0.5x TBE, 4 C. CD: 50 mM Tris, 200 mM NaCl, 50 mM NaH2PO4, 10% glycerol, pH 7.5, 22 C. The settings on record: protein: recombinant; chain copies: 2; blunt. (Circular dichroism is the unequal absorption of left and right circularly polarised light.)

Data set [2] concerns the target T1, Xyr1 (Xylanase regulator 1). Description: circular dichroism; 1.8 or 3.6 uM DNA, 0.5 uM Xyr1; EMSA/RNA-EMSA: 10 mM Tricine, 50 mM NaCl, pH 7.4, 22 C, 10 min; gel 0.5x TBE, 4 C. CD: 50 mM Tris, 200 mM NaCl, 50 mM NaH2PO4, 10% glycerol, pH 7.5, 22 C. The settings on record: protein: recombinant; chain copies: 2; blunt.

B1: XRE probe (xyr1 promoter) (dsDNA)
DNA 1: CACTGGATACCTACCTAGGTAGTCTGCAGCAGAAG
DNA 2: CTTCTGCTGCAGACTACCTAGGTAGGTATCCAGTG
For the molecule B1, the binding result in data set [1] is listed as “binds”.

B2: XBS probe (xyn1 promoter) (dsDNA)
DNA 1: TTGGCAGGCTAAATGCGACATCTTAGCCGGATGCA
DNA 2: TGCATCCGGCTAAGATGTCGCATTTAGCCTGCCAA
On to B2, for which the binding result in data set [2] is reported as “binds”.
